In PMC3779351 (Journal of Molecular Biology, 2013):

Assays:
Assay in all cases: SPR
GST-Cul5^NTD Gln113Ala = GST-Cul5^NTD Gln113Ala (mouse, UniProt Q9D5V5 1-384, Gln113Ala | Val341Arg | Leu345Asp)
GST-Cul5^NTD His48Ala = GST-Cul5^NTD His48Ala (mouse, UniProt Q9D5V5 1-384, His48Ala | Val341Arg | Leu345Asp)
GST-Cul5^NTD Phe41Ala = GST-Cul5^NTD Phe41Ala (mouse, UniProt Q9D5V5 1-384, Phe41Ala | Val341Arg | Leu345Asp)
GST-Cul5^NTD (wild type) = GST-Cul5^NTD (wild type) (mouse, UniProt Q9D5V5 1-384, Val341Arg | Leu345Asp)
Sequence of GST-Cul5^NTD (wild type) (Q9D5V5 1-384 V341R/L345D): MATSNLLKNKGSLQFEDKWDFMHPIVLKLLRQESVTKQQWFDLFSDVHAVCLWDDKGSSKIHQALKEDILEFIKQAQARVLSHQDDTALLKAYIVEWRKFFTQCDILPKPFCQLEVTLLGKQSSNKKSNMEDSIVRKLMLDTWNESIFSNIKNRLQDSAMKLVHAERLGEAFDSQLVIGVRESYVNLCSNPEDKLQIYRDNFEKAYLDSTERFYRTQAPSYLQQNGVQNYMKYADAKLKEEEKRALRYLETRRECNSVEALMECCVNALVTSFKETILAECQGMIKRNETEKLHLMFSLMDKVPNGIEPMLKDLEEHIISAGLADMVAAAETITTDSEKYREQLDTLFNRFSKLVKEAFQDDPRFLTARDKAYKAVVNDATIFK

GST-Cul5^NTD Leu52Ala = GST-Cul5^NTD Leu52Ala (mouse, UniProt Q9D5V5 1-384, Leu52Ala | Val341Arg | Leu345Asp)
Sequence of GST-Cul5^NTD Leu52Ala (Q9D5V5 1-384 L52A/V341R/L345D): as the sequence (Q9D5V5 1-384 V341R/L345D) above, with L52A counted along it

Sequence of GST-Cul5^NTD Phe41Ala (Q9D5V5 1-384 F41A/V341R/L345D): as the sequence (Q9D5V5 1-384 V341R/L345D) above, with F41A counted along it
Sequence of GST-Cul5^NTD His48Ala (Q9D5V5 1-384 H48A/V341R/L345D): as the sequence (Q9D5V5 1-384 V341R/L345D) above, with H48A counted along it
Sequence of GST-Cul5^NTD Gln113Ala (Q9D5V5 1-384 Q113A/V341R/L345D): as the sequence (Q9D5V5 1-384 V341R/L345D) above, with Q113A counted along it

B1: ASB9–Elongin B/C ternary complex (wild type) (complex)
chain 1: SDWSPMHEAAIHGHQLSLRNLISQGWAVNIITADHVSPLHEACLGGHLSCVKILLKHGAQVNGVTADWHTPLFNACVSGSWDCVNLLLQHGASVQPESDLASPIHEAARRGHVECVNSLIAYGGNIDHKISHLGTPLYLACENQQRACVKKLLESGADVNQGKGQDSPLHAVARTASEELACLLMDFGADTQAKNAEGKRPVELVPPESPLAQLFLEREGPPSLMQLCRLRIRKCFGIQQHHKITKLVLPEDLKQFLLHL
chain 2: […]
chain 3: […]
Question: Does B1 bind (GST-Cul5^NTD Gln113Ala)?
Answer: binds

Question: And the “fold loss in affinity against wild-type Cul5” value (GST-Cul5^NTD His48Ala)?
Answer: 50 fold

Question: And the “fold loss in affinity against wild-type Cul5” value (GST-Cul5^NTD Phe41Ala)?
Answer: 50 fold

Question: Does B1 bind (GST-Cul5^NTD (wild type))?
Answer: binds

Question: Does B1 bind (GST-Cul5^NTD Leu52Ala)?
Answer: binds
